# Measurements from US20200199204A1 (UNITED STATES OF AMERICA AS REPRESENTED BY THE SECRETARY …, published 2020).
# B1: CAP256-VRC26.01 (antibody, V domains shown)
# VH: EVQVVESGGGVVQPGRSLRLSCTASGFTFSNFAMGWVRQAPGKGLEWVAFISSDGSNKNYGDSVKGRFTISRDNSKNTVFLQMNSLRVEDTALYYCAKDVGDYKSDEWGTEYYDISISYPIQDPRAMVGAFDLWGQGTMVTVSP
# VL: QSVLTQPPSVSAAPGQKVTISCSGSSSTIGNNYVSWYRLLPGTAPKLLIYKNDNRPSGIPDRFSGSKSGTSATLGISGLQTGDEADYYCGTWDTSLSGGGVFGTGTKVTVLG
# Assays:
# Assay in all cases: cell-based or functional assay
# HIV-1 Env of REJO.67 = HIV-1 Env of REJO.67 (HIV-1)
# HIV-1 Env of 191821.E6.1 = HIV-1 Env of 191821.E6.1 (HIV-1)
# HIV-1 Env of DU156.12 = HIV-1 Env of DU156.12 (HIV-1)
# HIV-1 Env of ZM233.6 = HIV-1 Env of ZM233.6 (HIV-1)
# HIV-1 Env of TRO.11 = HIV-1 Env of TRO.11 (HIV-1)
# HIV-1 Env of CAP256.SU = HIV-1 Env of CAP256.SU (HIV-1)
# Env of SIVmac251.30 = Env of SIVmac251.30 (SIV (printed as nonHIV))
# HIV-1 Env of UG037.8 = HIV-1 Env of UG037.8 (HIV-1)
# HIV-1 Env of TRJO.58 = HIV-1 Env of TRJO.58 (HIV-1)
# HIV-1 Env of C1080.c3 = HIV-1 Env of C1080.c3 (HIV-1)
# HIV-1 Env of MB201 = HIV-1 Env of MB201 (HIV-1)
# HIV-1 Env of Q259.d2.17 = HIV-1 Env of Q259.d2.17 (HIV-1)
# HIV-1 Env of 6405.v4.c34 = HIV-1 Env of 6405.v4.c34 (HIV-1)
# HIV-1 Env of 96ZM651.02 = HIV-1 Env of 96ZM651.02 (HIV-1)
# HIV-1 Env of ZM197.7 = HIV-1 Env of ZM197.7 (HIV-1)
# HIV-1 Env of Q23.17 = HIV-1 Env of Q23.17 (HIV-1)
# HIV-1 Env of TH976.17 = HIV-1 Env of TH976.17 (HIV-1)
# HIV-1 Env of DU422.01 = HIV-1 Env of DU422.01 (HIV-1)
# HIV-1 Env of QH0692.42 = HIV-1 Env of QH0692.42 (HIV-1)
# HIV-1 Env of ZM214.15 = HIV-1 Env of ZM214.15 (HIV-1)
# HIV-1 Env of CAAN.A2 = HIV-1 Env of CAAN.A2 (HIV-1)
# HIV-1 Env of CAP45.G3 = HIV-1 Env of CAP45.G3 (HIV-1)
# HIV-1 Env of CNE3 = HIV-1 Env of CNE3 (HIV-1)
# HIV-1 Env of DU172.17 = HIV-1 Env of DU172.17 (HIV-1)
# HIV-1 Env of KER2008.12 = HIV-1 Env of KER2008.12 (HIV-1)
# HIV-1 Env of WITO.33 = HIV-1 Env of WITO.33 (HIV-1)
# HIV-1 Env of 0260.v5.c36 = HIV-1 Env of 0260.v5.c36 (HIV-1)
# HIV-1 Env of RHPA.7 = HIV-1 Env of RHPA.7 (HIV-1)
# HIV-1 Env of MB539.2B7 = HIV-1 Env of MB539.2B7 (HIV-1)
# HIV-1 Env of ZM53.12 = HIV-1 Env of ZM53.12 (HIV-1)
# HIV-1 Env of THRO.18 = HIV-1 Env of THRO.18 (HIV-1)
# HIV-1 Env of 3016.V5.c36 = HIV-1 Env of 3016.V5.c36 (HIV-1)
# HIV-1 Env of Q842.d12 = HIV-1 Env of Q842.d12 (HIV-1)
# HIV-1 Env of CM244.ec1 = HIV-1 Env of CM244.ec1 (HIV-1)
# HIV-1 Env of CAP244.D3 = HIV-1 Env of CAP244.D3 (HIV-1)
# HIV-1 Env of 6535.3 = HIV-1 Env of 6535.3 (HIV-1)
# HIV-1 Env of ZM249.1 = HIV-1 Env of ZM249.1 (HIV-1)
# HIV-1 Env of CAP210.E8 = HIV-1 Env of CAP210.E8 (HIV-1)
# HIV-1 Env of KER2018.11 = HIV-1 Env of KER2018.11 (HIV-1)
# HIV-1 Env of PVO.04 = HIV-1 Env of PVO.04 (HIV-1)
# HIV-1 Env of SC422.8 = HIV-1 Env of SC422.8 (HIV-1)
# HIV-1 Env of BG505.w6m = HIV-1 Env of BG505.w6m (HIV-1)
# HIV-1 Env of ZM135.10a = HIV-1 Env of ZM135.10a (HIV-1)
# HIV-1 Env of ZM109.4 = HIV-1 Env of ZM109.4 (HIV-1)
# HIV-1 Env of Q461.e2 = HIV-1 Env of Q461.e2 (HIV-1)
# HIV-1 Env of Q769.d22 = HIV-1 Env of Q769.d22 (HIV-1)
# HIV-1 Env of RW020.2 = HIV-1 Env of RW020.2 (HIV-1)
# HIV-1 Env of AC10.29 = HIV-1 Env of AC10.29 (HIV-1)
# HIV-1 Env of Q168.a2 = HIV-1 Env of Q168.a2 (HIV-1)
# HIV-1 Env of CAP256.PI = HIV-1 Env of CAP256.PI (HIV-1)
binder,measurement,setting,value
B1,neutralization IC50,HIV-1 Env of REJO.67,> 50 µg/mL
same,neutralization IC50,HIV-1 Env of 191821.E6.1,> 50 µg/mL
same,neutralization IC50,HIV-1 Env of DU156.12,> 50 µg/mL
same,neutralization IC50,HIV-1 Env of ZM233.6,> 50 µg/mL
same,neutralization IC50,HIV-1 Env of TRO.11,> 50 µg/mL
same,neutralization IC50,HIV-1 Env of CAP256.SU,0.14 µg/mL
same,neutralization IC50,Env of SIVmac251.30,> 50 µg/mL
same,neutralization IC50,HIV-1 Env of UG037.8,> 50 µg/mL
same,neutralization IC50,HIV-1 Env of TRJO.58,> 50 µg/mL
same,neutralization IC50,HIV-1 Env of C1080.c3,> 50 µg/mL
same,neutralization IC50,HIV-1 Env of MB201,> 50 µg/mL
same,neutralization IC50,HIV-1 Env of Q259.d2.17,> 50 µg/mL
same,neutralization IC50,HIV-1 Env of 6405.v4.c34,> 50 µg/mL
same,neutralization IC50,HIV-1 Env of 96ZM651.02,> 50 µg/mL
same,neutralization IC50,HIV-1 Env of ZM197.7,10.4 µg/mL
same,neutralization IC50,HIV-1 Env of Q23.17,> 50 µg/mL
same,neutralization IC50,HIV-1 Env of TH976.17,> 50 µg/mL
same,neutralization IC50,HIV-1 Env of DU422.01,> 50 µg/mL
same,neutralization IC50,HIV-1 Env of QH0692.42,> 50 µg/mL
same,neutralization IC50,HIV-1 Env of ZM214.15,> 50 µg/mL
same,neutralization IC50,HIV-1 Env of CAAN.A2,> 50 µg/mL
same,neutralization IC50,HIV-1 Env of CAP45.G3,> 50 µg/mL
same,neutralization IC50,HIV-1 Env of CNE3,> 50 µg/mL
same,neutralization IC50,HIV-1 Env of DU172.17,> 50 µg/mL
same,neutralization IC50,HIV-1 Env of KER2008.12,30.9 µg/mL
same,neutralization IC50,HIV-1 Env of WITO.33,> 50 µg/mL
same,neutralization IC50,HIV-1 Env of 0260.v5.c36,> 50 µg/mL
same,neutralization IC50,HIV-1 Env of RHPA.7,> 50 µg/mL
same,neutralization IC50,HIV-1 Env of MB539.2B7,> 50 µg/mL
same,neutralization IC50,HIV-1 Env of ZM53.12,0.103 µg/mL
same,neutralization IC50,HIV-1 Env of THRO.18,> 50 µg/mL
same,neutralization IC50,HIV-1 Env of 3016.V5.c36,9.63 µg/mL
same,neutralization IC50,HIV-1 Env of Q842.d12,> 50 µg/mL
same,neutralization IC50,HIV-1 Env of CM244.ec1,3.32 µg/mL
same,neutralization IC50,HIV-1 Env of CAP244.D3,> 50 µg/mL
same,neutralization IC50,HIV-1 Env of 6535.3,> 50 µg/mL
same,neutralization IC50,HIV-1 Env of ZM249.1,> 50 µg/mL
same,neutralization IC50,HIV-1 Env of CAP210.E8,0.217 µg/mL
same,neutralization IC50,HIV-1 Env of KER2018.11,8.1 µg/mL
same,neutralization IC50,HIV-1 Env of PVO.04,> 50 µg/mL
same,neutralization IC50,HIV-1 Env of SC422.8,> 50 µg/mL
same,neutralization IC50,HIV-1 Env of BG505.w6m,> 50 µg/mL
same,neutralization IC50,HIV-1 Env of ZM135.10a,> 50 µg/mL
same,neutralization IC50,HIV-1 Env of ZM109.4,> 50 µg/mL
same,neutralization IC50,HIV-1 Env of Q461.e2,> 50 µg/mL
same,neutralization IC50,HIV-1 Env of Q769.d22,> 50 µg/mL
same,neutralization IC50,HIV-1 Env of RW020.2,> 50 µg/mL
same,neutralization IC50,HIV-1 Env of AC10.29,> 50 µg/mL
same,neutralization IC50,HIV-1 Env of Q168.a2,> 50 µg/mL
same,neutralization IC50,HIV-1 Env of CAP256.PI,> 50 µg/mL
